Data reported in patent US20260104418A1 (published 2026).

What was measured:
[1] = molecular target: T1, human Claudin-18.2 (CLDN18.2) (human); assay: FACS titration of AF647-labelled IgG on HUPT4 cells (endogenous CLDN18.2)
T1 construct: On cells: endogenous on HUPT4 and SNU601; also called human CLDN18.2
Source text: (§1) CLDN18.2-expressing cells were used in FACS assays to determine the CLDN18.2 antibody's ability to bind to CLDN18.2 on the surface of cells and to cross-react with other CLDN family members. HEK293 T cells engineered to express human CLDN18.2 fused to GFP, mouse CLDN18.2 fused to GFP, CLDN18.1-GFP, or GFP alone (without CLDN18.2) were used as artificial models of CLDN18.2 expression. HUPT4, SNU601, and PATU8988S cells were used as endogenous models of CLDN18.2 expression.
(§2) For each type of cell tested and for each mAb, cells were detached from the surface of the culture flasks by versene (instead of trypsin) in order to protect the cell surface proteins. The detached cells were then incubated with Alexa Fluor®-labeled CLDN18.2 mAbs for 30 min in the dark on ice at a pre-determined concentration. […] After washing, the cells were read by a BD Accuri™ Flow Cytometer C6 to detect antibody-antigen protein binding in channel FL4H. Each antibody was tested at varied concentrations to establish a dose-fluorescence curve.

[2] = molecular target: T1, human Claudin-18.2 (CLDN18.2); assay: FACS titration of AF647-labelled IgG on SNU601 cells (endogenous CLDN18.2)
Source text: as §1, §2

[3] = molecular target: T1, human Claudin-18.2 (CLDN18.2); assay: FACS titration of AF647-labelled IgG on HEK293T cells overexpressing human CLDN18.2 (clone C12)
Source text: as §1, §2

[4] = molecular target: T1, human Claudin-18.2 (CLDN18.2); assay: FACS, 1.5 ug antibody, HUPT4 cells (endogenous CLDN18.2)
Procedure: (§3) FAGS assays were carried out to determine relative antigen binding strengths of the humanized antibodies (at either 1.5 ag or 0.3 rag) for binding to CLDN18.2 as expressed by the indicated cancer cell lines.

[5] = molecular target: T1, human Claudin-18.2 (CLDN18.2); assay: FACS, 1.5 ug antibody, HEK293T-CLDN18.2 C12 clone
Procedure: as §3

B1: Ab 301 (antibody, V domains shown)
VH: VVQLQQSGPELVKPGASVKMSCKASGYTFTSFLIHWVRQKPGLGLEWIGYINPYDYGINYNVKFMDKVTLTSDKTSSTAYMELSSLTSADSAIYYCTRGDYWGQGTSVIVSS
VL: DIVMTQSPSSLAVTTGEQVTMNCKSSQSLLNSGNQKNYLTWYQQKTGQSPKLLIYWASTRQSGVPDRFTGSGSGTDFTLTISSVQAEDLAVYYCLNDYGFPLTFGAGTKLELK
notes: Full-length IgG from ExpiCHO
B1 gave an EC50 [1] of 143 nM, an EC50 [2] of 256 nM and an EC50 [3] of 22.1 nM.

B2: Ab 409 (antibody, V domains shown)
VH: QVQLQQSGAELARPGASVKLSCKASGYTFTSYGISWVKQRTGQGLEWIGEISPRSGNTYYNEKFKGKATLTADKSSSTAYMELRSLTSEDSAVYFCATGVITTVIPTDWYFDVWGTGTTVTVSS
VL: DIQMTQTTSSLSASLGDRVTISCRASQDISNYLNWYQQKPDGTVKLLIYYTSRLHSGVPSRFSGSGSGTDYSLTISNLEPEDIATYYCQHYSKLPPTFGSGTKLEIK
notes: Full-length IgG from ExpiCHO; 38 is used
In the case of B2, the EC50 [3] is reported as 605 nM.

B3: Ab 416 (antibody, V domains shown)
VH: EFQLQQSGPELVKPGASVKISCKASVYSFTGYNMNWVKQSNGKSLEWIGVINPNYGNTNYNQRFKGKATLTVDQSSSTAYMQLNSLTSEDSAVYYCARSEDYYNIRGASWGQGTLVTVSA
VL: QIVLTQSPAIMSASPGQKVTITCSASSTINYMHWYQQKLGSSPKLWIYDTSKLAPGVPARFSGSGSGTSYSLTISSMEAEDAASYFCHQWSSYPPTFGSGTKLELK
notes: Full-length IgG from ExpiCHO
With B3 the EC50 [3] was 597 nM.

B4: Reference antibody 1 (Benchmark 1-175D10) (antibody, V domains shown)
VH: QVQLQQPGAELVRPGASVKLSCKASGYTFTSYWINWVKQRPGQGLEWIGNIYPSDSYTNYNQKFKDKATLTVDKSSSTAYMQLSSPTSEDSAVYYCTRSWRGNSFDYWGQGTTLTVSS
VL: DIVMTQSPSSLTVTAGEKVTMSCKSSQSLLNSGNQKNYLTWYQQKPGQPPKLLIYWASTRESGVPDRFTGSGSGTDFTLTISSVQAEDLAVYYCQNDYSYPFTFGSGTKLEIK
With B4 the “FACS signal (relative antigen binding strength)” value [4] was 2450, the “FACS signal (relative antigen binding strength)” value [5] was 80600 and the EC50 [3] was 1090 nM.

B5: Ab 331 (antibody, V domains shown)
VH: EVQLQQSGPELVKPGASVRMSCKASGYTFTSYIMHWVKQKPGQGPEWMGYINPYNDGTNYNEKFKDKATLTSDKSSSTAYMDLSSLTSEDSAVYYCTRGDYWGQGTSVTVSS
VL: DIVMTQSPSSLTVTAGEKVTMSCKSSQSLLNSGNQKNYLTWYQQKPGQPPKLLFYWASTKKSGVPDRFTGSGSRTDFTLTISSVQAEDLAVYYCLNDYSFPLTFGAGTKLELK
notes: Full-length IgG from ExpiCHO
B5 showed an EC50 [1] of 606 nM, an EC50 [2] of 106 nM and an EC50 [3] of 23.1 nM.

B6: Ab 369 (antibody, V domains shown)
VH: DVKLVESGGGLVKPGGSLKLSCAASGFTFTSYTMSWVRQTPEKRLEWVATIIIGGSYTYYPDSVKGRFTISRDNAKNTLYLQMSSLKSEDTAMYYCTRLVKGNAMDYWGQGTSVTVSS
VL: DILMTQSPSSLTVTAGEKVTMTCKSSQSLLNSGNQKNYLTWYQQKPGQPPKLLIYWASSRESGVPDRFTGSGSGTDFTLTISSVQAEDLAVYYCQNDYSYPFTFGAGTKLELK
notes: Full-length IgG from ExpiCHO
With B6 the EC50 [1] was 265 nM, the EC50 [2] was 276 nM and the EC50 [3] was 40 nM.

B7: Reference antibody 2 (Benchmark 2-163E12) (antibody, V domains shown)
VH: QVQLQQSGAELARPGASVKLSCKASGYTFTDYYINWVKQRTGQGLEWIGEIYPGSGNTYYNEKFKGKATLTADKSSSTAYMQLSSLTSEDSAVYFCARSYGAFDYWGQGTTLTVSS
VL: DIVMTQSPSSLTVTAGEKVTMSCKSSQSLLNSGNQKNYLTWYQQKPGQPPKLLIYWASTRESGVPDRFTGSGSGTDFTLTISSVQAEDLAVYYCQNDYSYPLTFGAGTKLELK
With B7 the “FACS signal (relative antigen binding strength)” value [4] was 11100, the “FACS signal (relative antigen binding strength)” value [5] was 125000 and the EC50 [3] was 1740 nM.

B8: Ab 358 (antibody, V domains shown)
VH: VVQLVESGGDFVQPGGSRKLSCAVSGFTFSSFGMHWVRQAPEKGLEWVAYISSGTTNIYYADTVKGRFTVSRDNPKNSLFLHMTSLRSEDTAMYYCVRSGYYGNSLDYWGQGTPLTVSS
VL: DIVMTQSPSSLTVTAGEKVTMSCKSSQSLFNSGNQRNYLTWYQQKPGQPPKLLIYWASTRESGVPDRFTGSGSGTGFTLTISSVQAEDLAFYYCQNVYIYPLTFGLGTKLELR
notes: Full-length IgG from ExpiCHO
Work on B8 yielded an EC50 [1] of 111 nM, an EC50 [2] of 414 nM and an EC50 [3] of 54.5 nM.

B9: Ab 400 (antibody, V domains shown)
VH: QVQLKESGPGLVAPSQSLSITCTVSGFSLNSYGVSWVRQPPGKGLEWLGVIWGDGSTNYHSALKSRLNINKDKSKSQVFLKLNSLQTDDTATYYCARPTRGNAMDYWGQGTSVTVSS
VL: DVVMTQSPSSLTVTAGEKVTMNCKSSQSLLNSGNQRSYLTWYQQKPGQPPKLLIYWASTRESGAPDRFTGSGSGADFTLTISSVQAEDLAIYYCQNNYNYPFTFGSGTKLEIK
notes: Full-length IgG from ExpiCHO
B9 showed an EC50 [1] of 97.8 nM, an EC50 [2] of 270 nM and an EC50 [3] of 31.2 nM.

B10: Ab 432 (antibody, V domains shown)
VH: QIQLQQSGAELARPRASVKLSCKASGYTFTSDVISWVKQRPGQGLEWIGESYLRNGNTYYNENFKGKATLTADKSSSTAYMELRSLTSEDSAVYFCARSYYGNSFAYWGQGTLVTVSA
VL: DIVMTQSPSSLTVTAREKVTMNCKSTQSLLNSGNQKNYLTWYQQKPGQPPKLLIYWASTRESGVPDRFTGSGSGTDFTLTISSVQAEDLAVYYCQNAYYYPFTFGGGTKLEIK
notes: Full-length IgG from ExpiCHO; also called 432-Chim
For B10, the EC50 [1] was 348 nM, the EC50 [2] was 245 nM and the EC50 [3] was 42.3 nM.

B11: Ab 347 (antibody, V domains shown)
VH: EVQLQQSGPELVKPGASVKMSCKASGYTFTSYLIHWVKQKPGQGLEWIGYINPYNDATYYNEKFKAKATLTSDKSSSTAYMELSSLTSEDTAIYYCTRGDYWSQGTSVTVSS
VL: DIVMTQSPSSLTVTAGEKVTMSCKSSQSLLNSGNQKNYLTWYQQKPGQPPKLLIYWASTRQSGVPDRFTGSGSGTDFTLTISSVQAEDLTVYYCLNDYSFPLTFGAGTKLELK
notes: Full-length IgG from ExpiCHO
B11 showed an EC50 [1] of 294 nM, an EC50 [2] of 276 nM and an EC50 [3] of 70.4 nM.

B12: Ab 360 (antibody, V domains shown)
VH: VVQLQQSGPELVKPGASVKMSCKASGYTFTSYLMHWVRQKPGLGLDWIGYINPYNDGTNYNAKFIDKATLTSDKTSSTAYMELSSLTSEDSAIYYCTRGDYWGQGTSVTVSS
VL: DIVMTQSPSSLAVTAGEQVTMSCKSSQSLLNSGNQKNYLTWYQQKPGQPPKLLIYWASIRQSGVPDRFTGSGSGTDFTLTISSVQAEDLAVYYCLNDYGFPLTFGAGTKLELK
notes: Full-length IgG from ExpiCHO; also called 360-Chim
Binder B12 has an EC50 [1] of 693 nM, an EC50 [2] of 119 nM and an EC50 [3] of 39.7 nM.

B13: Ab 392 (antibody, V domains shown)
VH: EVQLQQSGPELVKPGASVKMSCKASGFTFTSYVMHWVKQKSGQGLEWIGYINPYNDDIKYNAKFEDKATLTSDRSSSTAYMELSSLTSDDSAVYFCTRGDYWGQGTTLTVSS
VL: DIVMTQSPSSLTVTTGEKVTMDCKSSQSLLNSGNQKNYLTWYQQKSGQPPKLLIYWASIRKSGVPDRFTGSGSGTDFTLTISSVQAEDLAVYYCLNDYSFPLTFGAGTKLELK
notes: Full-length IgG from ExpiCHO
Work on B13 yielded an EC50 [3] of 446 nM.

B14: Ab 384 (antibody, V domains shown)
VH: QVQLQQSGAELARPGASVKLSCKASDYTFTSYVISWVKQRTGQGLEWIGEIYPRNGNTYYNEKFKGKATLTADKSSSTAYMELRSLTSEDSAVYFCARSYYGNSFAYWGQGTLVTVSA
VL: DIVMTQSPSSLTVTAGEKVTMSCKSSQSLLNSGNQKNYLTWYQQRPGQPPKLLIYWASTRESGVPDRFTGSGSGTDFTLTISSVQAEDLAVYCCQNNYYYPFTFGGGTKLGIK
notes: Full-length IgG from ExpiCHO
Binder B14 has an EC50 [3] of 595 nM.

B15: Ab 307 (antibody, V domains shown)
VH: DVKLVESGGGLVKPGGSLKLSCAASGFTFSSYTMSWVRQTPEKRLEWVATIIIGGSYTYYPDSVKGRFTISRDNAKNTLYLQMSSLKSEDTAMYYCTRLVKGNAMDYWGQGTSVAVSS
VL: DIVMTQSPSSLTVTTGEKVTMSCKSSQSLLNSGNQKNYLSWYQQIPGQPPKLLFYWASTRESGVPDRFTGSGSGTDFTLTISNVQAEDLAVYYCQNDYSYPFTFGAGTKLELR
notes: Full-length IgG from ExpiCHO
B15 showed an EC50 [1] of 336 nM, an EC50 [2] of 221 nM and an EC50 [3] of 39.1 nM.

B16: Ab 376 (antibody, V domains shown)
VH: DVKLVESGGGLVKPGGSLKLSCAASGFTFSSYTMSWVRQTPEKRLYWVATISSGVSYTYYPDSVKGRFTISRDNAKNTLYLQMSSLKSEDTAMYYCTRLTKGNAMDYWGQGTSVTVSS
VL: DIVMTQSPSSLTVTAGEKVTMSCKSSQSLLNSGNQKNYLTWYQQKPGQPPKLLIYWASTRESGVPDRFTGSGSGTGFTLTISSVQAEDLAVYYCQNDYSYPFTFGAGTKLELK
notes: Full-length IgG from ExpiCHO
With B16 the “FACS signal (relative antigen binding strength)” value [4] was 31300, the “FACS signal (relative antigen binding strength)” value [5] was 137000 and the EC50 [3] was 52.1 nM.
